Measured values published in patent US20130097729A1.

Target: whole pea aphid BBMV proteins
Experiment: pull-down with whole pea aphid BBMV, anti-GFP western blot, ImageJ band intensities

## GBP3.1(R8A)EGFP (peptide)
  fold increase in BBMV binding efficiency against GBP3.1-EGFP: 5 fold
